Bridges are numbered along the chain shown (N, C = ends). [ ]: non-standard residue; d: D form. R8 = C=CCCCCCC[C@@](C)(N)C(=O)O; S5 = C=CCCC[C@](C)(N)C(=O)O
T1: C-terminally 6x Histidine-tagged Beta-Catenin (aa 134-668, 59 KD) (UniProt P35222 134-668)
T1 construct: range 134-668; Armadillo repeat region
T1 sequence: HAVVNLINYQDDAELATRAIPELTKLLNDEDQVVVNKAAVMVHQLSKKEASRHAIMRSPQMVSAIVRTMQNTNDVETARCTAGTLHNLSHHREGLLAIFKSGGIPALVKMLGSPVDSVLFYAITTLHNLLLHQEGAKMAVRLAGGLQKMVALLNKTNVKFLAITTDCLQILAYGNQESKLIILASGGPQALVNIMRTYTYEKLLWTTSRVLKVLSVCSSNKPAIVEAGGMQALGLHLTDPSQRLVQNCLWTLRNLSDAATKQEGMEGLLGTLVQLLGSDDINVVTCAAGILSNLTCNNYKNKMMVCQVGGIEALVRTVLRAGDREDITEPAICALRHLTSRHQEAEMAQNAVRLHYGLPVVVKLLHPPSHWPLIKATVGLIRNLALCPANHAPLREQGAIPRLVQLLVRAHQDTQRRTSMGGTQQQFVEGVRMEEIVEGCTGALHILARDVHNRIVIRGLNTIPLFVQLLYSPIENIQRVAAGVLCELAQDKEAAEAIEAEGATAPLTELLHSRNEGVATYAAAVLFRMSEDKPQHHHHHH


The binders below were run against T1, C-terminally 6x Histidine-tagged … (assay: competitive fluorescence polarization, FAM-labelled linear probe as competitor, His-tagged beta-catenin 134-668).
Method in brief: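 FP competition in 25 mM Tris-HCl pH 7.5, 200 mM NaCl, 5 mM CHAPS, 2 mM DTT at room temperature. Competitor peptides at 40–0.7 μM 2× working range, constant DMSO. Probe (benchmark peptide with N-terminal FAM via β-Ala spacer) from 25 nM 10× stock. Read after 3 h in the dark, ex 485/em 528 nm.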

Binder	IC50 [µM]
Ac-LGANDELISFKDEG[S5]QEE[S5]SSN-NH2 (staple 15-19; SMILES CC[C@H](C)[C@H](NC(=O)[C@H](CC(C)C)NC(=O)[C@H](CCC(=O)O)NC(=O)[C@H](CC(=O)O)NC(=O)[C@H](CC(N)=O)NC(=O)[C@H](C)NC(=O)CNC(=O)[C@H](CC(C)C)NC(C)=O)C(=O)N[C@@H](CO)C(=O)N[C@@H](Cc1ccccc1)C(=O)N[C@@H](CCCCN)C(=O)N[C@@H](CC(=O)O)C(=O)N[C@@H](CCC(=O)O)C(=O)NCC(=O)N[C@@]1(C)CCCC=CCCC[C@@](C)(C(=O)N[C@@H](CO)C(=O)N[C@@H](CO)C(=O)N[C@@H](CC(N)=O)C(N)=O)NC(=O)[C@H](CCC(=O)O)NC(=O)[C@H](CCC(=O)O)NC(=O)[C@H](CCC(N)=O)NC1=O) [SP18]	60.1
Ac-LGANDELISFK[R8]EGEQEE[S5]SSN-NH2 (staple 12-19; SMILES CC[C@H](C)[C@H](NC(=O)[C@H](CC(C)C)NC(=O)[C@H](CCC(=O)O)NC(=O)[C@H](CC(=O)O)NC(=O)[C@H](CC(N)=O)NC(=O)[C@H](C)NC(=O)CNC(=O)[C@H](CC(C)C)NC(C)=O)C(=O)N[C@@H](CO)C(=O)N[C@@H](Cc1ccccc1)C(=O)N[C@@H](CCCCN)C(=O)N[C@]1(C)CCCCCCC=CCCC[C@@](C)(C(=O)N[C@@H](CO)C(=O)N[C@@H](CO)C(=O)N[C@@H](CC(N)=O)C(N)=O)NC(=O)[C@H](CCC(=O)O)NC(=O)[C@H](CCC(=O)O)NC(=O)[C@H](CCC(N)=O)NC(=O)[C@H](CCC(=O)O)NC(=O)CNC(=O)[C@H](CCC(=O)O)NC1=O) [SP21]	23.9
Ac-LGANDELISF[R8]DEGEQE[S5]KSSN-NH2 (staple 11-18; SMILES CC[C@H](C)[C@H](NC(=O)[C@H](CC(C)C)NC(=O)[C@H](CCC(=O)O)NC(=O)[C@H](CC(=O)O)NC(=O)[C@H](CC(N)=O)NC(=O)[C@H](C)NC(=O)CNC(=O)[C@H](CC(C)C)NC(C)=O)C(=O)N[C@@H](CO)C(=O)N[C@@H](Cc1ccccc1)C(=O)N[C@]1(C)CCCCCCC=CCCC[C@@](C)(C(=O)N[C@@H](CCCCN)C(=O)N[C@@H](CO)C(=O)N[C@@H](CO)C(=O)N[C@@H](CC(N)=O)C(N)=O)NC(=O)[C@H](CCC(=O)O)NC(=O)[C@H](CCC(N)=O)NC(=O)[C@H](CCC(=O)O)NC(=O)CNC(=O)[C@H](CCC(=O)O)NC(=O)[C@H](CC(=O)O)NC1=O) [SP20]	≥ 100
Ac-LGANDELISFKDEGE[S5]EEK[S5]SN-NH2 (staple 16-20; SMILES CC[C@H](C)[C@H](NC(=O)[C@H](CC(C)C)NC(=O)[C@H](CCC(=O)O)NC(=O)[C@H](CC(=O)O)NC(=O)[C@H](CC(N)=O)NC(=O)[C@H](C)NC(=O)CNC(=O)[C@H](CC(C)C)NC(C)=O)C(=O)N[C@@H](CO)C(=O)N[C@@H](Cc1ccccc1)C(=O)N[C@@H](CCCCN)C(=O)N[C@@H](CC(=O)O)C(=O)N[C@@H](CCC(=O)O)C(=O)NCC(=O)N[C@@H](CCC(=O)O)C(=O)N[C@@]1(C)CCCC=CCCC[C@@](C)(C(=O)N[C@@H](CO)C(=O)N[C@@H](CC(N)=O)C(N)=O)NC(=O)[C@H](CCCCN)NC(=O)[C@H](CCC(=O)O)NC(=O)[C@H](CCC(=O)O)NC1=O) [SP19]	≥ 100
Ac-LGANDQLISF[S5]DEG[S5]QEEKSSN-NH2 (staple 11-15; SMILES CC[C@H](C)[C@H](NC(=O)[C@H](CC(C)C)NC(=O)[C@H](CCC(N)=O)NC(=O)[C@H](CC(=O)O)NC(=O)[C@H](CC(N)=O)NC(=O)[C@H](C)NC(=O)CNC(=O)[C@H](CC(C)C)NC(C)=O)C(=O)N[C@@H](CO)C(=O)N[C@@H](Cc1ccccc1)C(=O)N[C@@]1(C)CCCC=CCCC[C@@](C)(C(=O)N[C@@H](CCC(N)=O)C(=O)N[C@@H](CCC(=O)O)C(=O)N[C@@H](CCC(=O)O)C(=O)N[C@@H](CCCCN)C(=O)N[C@@H](CO)C(=O)N[C@@H](CO)C(=O)N[C@@H](CC(N)=O)C(N)=O)NC(=O)CNC(=O)[C@H](CCC(=O)O)NC(=O)[C@H](CC(=O)O)NC1=O) [SP53]	24.4

The next lines start with the values.

IC50 [µM]	Binder
23.7	Ac-LGANDELISF[S5]DEG[S5]QQQKSSN-NH2 (staple 11-15; SMILES CC[C@H](C)[C@H](NC(=O)[C@H](CC(C)C)NC(=O)[C@H](CCC(=O)O)NC(=O)[C@H](CC(=O)O)NC(=O)[C@H](CC(N)=O)NC(=O)[C@H](C)NC(=O)CNC(=O)[C@H](CC(C)C)NC(C)=O)C(=O)N[C@@H](CO)C(=O)N[C@@H](Cc1ccccc1)C(=O)N[C@@]1(C)CCCC=CCCC[C@@](C)(C(=O)N[C@@H](CCC(N)=O)C(=O)N[C@@H](CCC(N)=O)C(=O)N[C@@H](CCC(N)=O)C(=O)N[C@@H](CCCCN)C(=O)N[C@@H](CO)C(=O)N[C@@H](CO)C(=O)N[C@@H](CC(N)=O)C(N)=O)NC(=O)CNC(=O)[C@H](CCC(=O)O)NC(=O)[C@H](CC(=O)O)NC1=O) [SP46]
3.08	Ac-LGANDELISF[S5]DQG[S5]QEEKSSN-NH2 (staple 11-15; SMILES CC[C@H](C)[C@H](NC(=O)[C@H](CC(C)C)NC(=O)[C@H](CCC(=O)O)NC(=O)[C@H](CC(=O)O)NC(=O)[C@H](CC(N)=O)NC(=O)[C@H](C)NC(=O)CNC(=O)[C@H](CC(C)C)NC(C)=O)C(=O)N[C@@H](CO)C(=O)N[C@@H](Cc1ccccc1)C(=O)N[C@@]1(C)CCCC=CCCC[C@@](C)(C(=O)N[C@@H](CCC(N)=O)C(=O)N[C@@H](CCC(=O)O)C(=O)N[C@@H](CCC(=O)O)C(=O)N[C@@H](CCCCN)C(=O)N[C@@H](CO)C(=O)N[C@@H](CO)C(=O)N[C@@H](CC(N)=O)C(N)=O)NC(=O)CNC(=O)[C@H](CCC(N)=O)NC(=O)[C@H](CC(=O)O)NC1=O) [SP39]
6.63	Ac-LGANDELISF[S5]DEG[S5]QQEKSSN-NH2 (staple 11-15; SMILES CC[C@H](C)[C@H](NC(=O)[C@H](CC(C)C)NC(=O)[C@H](CCC(=O)O)NC(=O)[C@H](CC(=O)O)NC(=O)[C@H](CC(N)=O)NC(=O)[C@H](C)NC(=O)CNC(=O)[C@H](CC(C)C)NC(C)=O)C(=O)N[C@@H](CO)C(=O)N[C@@H](Cc1ccccc1)C(=O)N[C@@]1(C)CCCC=CCCC[C@@](C)(C(=O)N[C@@H](CCC(N)=O)C(=O)N[C@@H](CCC(N)=O)C(=O)N[C@@H](CCC(=O)O)C(=O)N[C@@H](CCCCN)C(=O)N[C@@H](CO)C(=O)N[C@@H](CO)C(=O)N[C@@H](CC(N)=O)C(N)=O)NC(=O)CNC(=O)[C@H](CCC(=O)O)NC(=O)[C@H](CC(=O)O)NC1=O) [SP40]
10.9	Ac-LGANDELISF[S5]DQG[S5]QEQKSSN-NH2 (staple 11-15; SMILES CC[C@H](C)[C@H](NC(=O)[C@H](CC(C)C)NC(=O)[C@H](CCC(=O)O)NC(=O)[C@H](CC(=O)O)NC(=O)[C@H](CC(N)=O)NC(=O)[C@H](C)NC(=O)CNC(=O)[C@H](CC(C)C)NC(C)=O)C(=O)N[C@@H](CO)C(=O)N[C@@H](Cc1ccccc1)C(=O)N[C@@]1(C)CCCC=CCCC[C@@](C)(C(=O)N[C@@H](CCC(N)=O)C(=O)N[C@@H](CCC(=O)O)C(=O)N[C@@H](CCC(N)=O)C(=O)N[C@@H](CCCCN)C(=O)N[C@@H](CO)C(=O)N[C@@H](CO)C(=O)N[C@@H](CC(N)=O)C(N)=O)NC(=O)CNC(=O)[C@H](CCC(N)=O)NC(=O)[C@H](CC(=O)O)NC1=O) [SP45]
3.75	Ac-LGANDELISF[S5]DQG[S5]QQEKSSN-NH2 (staple 11-15; SMILES CC[C@H](C)[C@H](NC(=O)[C@H](CC(C)C)NC(=O)[C@H](CCC(=O)O)NC(=O)[C@H](CC(=O)O)NC(=O)[C@H](CC(N)=O)NC(=O)[C@H](C)NC(=O)CNC(=O)[C@H](CC(C)C)NC(C)=O)C(=O)N[C@@H](CO)C(=O)N[C@@H](Cc1ccccc1)C(=O)N[C@@]1(C)CCCC=CCCC[C@@](C)(C(=O)N[C@@H](CCC(N)=O)C(=O)N[C@@H](CCC(N)=O)C(=O)N[C@@H](CCC(=O)O)C(=O)N[C@@H](CCCCN)C(=O)N[C@@H](CO)C(=O)N[C@@H](CO)C(=O)N[C@@H](CC(N)=O)C(N)=O)NC(=O)CNC(=O)[C@H](CCC(N)=O)NC(=O)[C@H](CC(=O)O)NC1=O) [SP44]
19.5	Ac-LGANDELISF[S5]DEG[S5]QEQKSSN-NH2 (staple 11-15; SMILES CC[C@H](C)[C@H](NC(=O)[C@H](CC(C)C)NC(=O)[C@H](CCC(=O)O)NC(=O)[C@H](CC(=O)O)NC(=O)[C@H](CC(N)=O)NC(=O)[C@H](C)NC(=O)CNC(=O)[C@H](CC(C)C)NC(C)=O)C(=O)N[C@@H](CO)C(=O)N[C@@H](Cc1ccccc1)C(=O)N[C@@]1(C)CCCC=CCCC[C@@](C)(C(=O)N[C@@H](CCC(N)=O)C(=O)N[C@@H](CCC(=O)O)C(=O)N[C@@H](CCC(N)=O)C(=O)N[C@@H](CCCCN)C(=O)N[C@@H](CO)C(=O)N[C@@H](CO)C(=O)N[C@@H](CC(N)=O)C(N)=O)NC(=O)CNC(=O)[C@H](CCC(=O)O)NC(=O)[C@H](CC(=O)O)NC1=O) [SP41]

Source: patent US20170266254A1 (AILERON THERAPEUTICS, published 2017)
